In PMC4738354, “Volta phase plate cryo-EM of the small protein complex Prx3” (Nature Communications, 2016):

Target: the molecule itself
Test: cryo-EM structure; single-particle cryo-EM with Volta phase plate, frozen-hydrated hPrx3 in thick ice; two data sets (7.3 Å and 4.4 Å reconstructions); D6 symmetry imposed in 3D classification of the first data set

B1: human peroxiredoxin-3 (natural protein, UniProt P30048 62-256, looked up)
chain: APAVTQHAPYFKGTAVVNGEFKDLSLDDFKGKYLVLFFYPLDFTFVCPTEIVAFSDKANEFHDVNCEVVAVSVDSHFSHLAWINTPRKNGGLGHMNIALLSDLTKQISRDYGVLLEGSGLALRGLFIIDPNGVIKHLSVNDLPVGRSVEETLRLVKAFQYVETHGEVCPANWTPDSPTIKPSPAASKEYFQKVNQ
notes: peroxiredoxin-3 (Prx3), human mitochondrial isoform; also called hPrx3; Prx3; source: Rosetta (DE3) cells (Novagen), purified (HisTrap, Superdex 200 gel filtration, TEV cleavage of the His-tag); copies: 12
stoichiometry N: 12
